In article PMC8938434, “Atomic resolution dynamics of cohesive interactions in phase-separated Nup98 FG domains” (Nature Communications, 2022):

Experiments:
[1] = molecular target: wild-type Tetrahymena thermophila MacNup98A (Mac98A) FG domain (Tetrahymena thermophila); assay: partition of fluorescent probes into FG particles (confocal laser scanning microscopy); FG particles mixed with permeation probes (2 μM Alexa488-labelled NTF2 and 10 μM mCherry in assay buffer, 15 μl + 15 μl); 20 mM NaPi pH 6.8, 150 mM NaCl, 5 mM DTT; 21 °C; partition coefficient = signal inside FG phase: signal in buffer
prf.GLFG_(52 × 12) = molecular target: T1, prf.GLFG_(52 × 12); assay: partition of Atto488-coupled FG domains into FG particles (confocal laser scanning microscopy); 20 μM unlabelled prf.GLFG_(52 × 12) premixed with 0.5 μM Atto488-labelled species (GAFG: 3 μM); 20 mM NaPi pH 6.8, 150 mM NaCl, 5 mM DTT; 21 °C; apparent partition coefficient = Atto488 signal IN: OUT of the FG particles; settings: both partners purified
T1 construct: engineered from the Tetrahymena thermophila MacNup98A FG domain; plasmid pSNG064; Isotope-labelled (15N, 13C) for NMR; also called perfect repeat; source: E. coli, inclusion bodies, Ni(II) chelate column, tag cut off with bdSENP1 protease, lyophilized; not shown: His14-ZZ-scSUMO, N-terminal, cleaved
T1 chain: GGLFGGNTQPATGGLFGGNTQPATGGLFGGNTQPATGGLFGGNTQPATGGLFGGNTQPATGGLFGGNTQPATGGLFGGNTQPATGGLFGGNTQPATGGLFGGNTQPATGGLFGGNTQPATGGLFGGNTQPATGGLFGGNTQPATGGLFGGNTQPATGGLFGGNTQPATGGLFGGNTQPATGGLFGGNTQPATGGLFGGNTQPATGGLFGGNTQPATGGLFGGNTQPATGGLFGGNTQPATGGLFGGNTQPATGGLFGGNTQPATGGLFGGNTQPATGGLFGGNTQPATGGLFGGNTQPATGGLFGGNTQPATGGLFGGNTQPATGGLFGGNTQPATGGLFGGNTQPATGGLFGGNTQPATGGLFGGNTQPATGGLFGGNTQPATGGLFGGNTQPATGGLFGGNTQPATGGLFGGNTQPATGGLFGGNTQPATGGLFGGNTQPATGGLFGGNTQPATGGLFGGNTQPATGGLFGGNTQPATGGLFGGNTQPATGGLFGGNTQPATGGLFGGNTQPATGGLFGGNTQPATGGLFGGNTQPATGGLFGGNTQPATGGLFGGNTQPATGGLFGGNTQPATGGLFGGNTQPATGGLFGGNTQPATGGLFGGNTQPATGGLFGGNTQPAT

[2] = molecular target: the molecule itself; assay: MAS NMR, 1H-13C cross-polarization of the FG phase; FG phase from u-[13C,15N]-labelled protein, 36 °C, 20 kHz MAS; cross-polarization against direct excitation

“nuclear transport receptor NTF2 (labelled with Alexa Fluor 488) (from UniProt P61970 1-127) (natural protein)” was tested, and the partition coefficient [1] was 2000.

B1: Atto488-coupled GLLG//L_(52 × 12) (other)
chain: GSGLLGNTGLAPAGGLLGNTQLQQGGGLLGQPQLTQGGGLLGQTGLTTGGGLLGGATLTAPGGLLGGGGLNPTGGLLGGNNLQQTGGLLGQGTLQTGGGLLGAPQLNQGGGLLGGGTLTTGGGLLGANTLTGGGGLLGGPSLPTTAGLLGSNNLTTGGGLLGQPALTNNGGLLGGQTLNQASGLLGANNLPPTNGLLGNNNLPQTAGLLGGATLTGNTGLLGGANLTGGGGLLGNNTLNPTGGLLGATNLAGGGGLLGGGALTGGGGLLGGGNLQTGGGLLGTANLTTAGGLLGGGNLQPQNGLLGNNNLPATGGLLGQTNLAAPQGLLGGTNLNAASGLLGQKPLSANGVLTKPNEKNLCYAISNGTDFCIFELALTQRKLVKAGQLKPGAQAGGLLGQPALNTQGGLLGGGGLATTPGLLGGAQLNTTGGLLGGQNLQAGGGLLGAPNLAAATGLLGAGNLNTQGGLLGAKPLATGGGLLGQPALTQAGGLLGNTALPAGGGLLGGATLTPGGGLLGGNTLATGGGLLGGNTLGATGGLLGGQQLNNQGGLLGNTNLNTGGGLLGGATLTTGGGLLGGSTLATGGGLLGGASLPAAGGLLGGAALQQNSGLLGGATLGQTGGLLGGATLQQGGGLLGQTALNPGGGLLGAANLTTQPGLLGGNNLAATTSC
modifications: Atto488 (coupled)
Molecule B1 has a partition coefficient (prf.GLFG_(52 × 12)) of 110.

B2: Pro-free prf.GLFG_(52 × 12) (other)
chain: GGLFGGATNSQTGGLFGGATNSQTGGLFGGATNSQTGGLFGGATNSQTGGLFGGATNSQTGGLFGGATNSQTGGLFGGATNSQTGGLFGGATNSQTGGLFGGATNSQTGGLFGGATNSQTGGLFGGATNSQTGGLFGGATNSQTGGLFGGATNSQTGGLFGGATNSQTGGLFGGATNSQTGGLFGGATNSQTGGLFGGATNSQTGGLFGGATNSQTGGLFGGATNSQTGGLFGGATNSQTGGLFGGATNSQTGGLFGGATNSQTGGLFGGATNSQTGGLFGGATNSQTGGLFGGATNSQTGGLFGGATNSQTGGLFGGATNSQTGGLFGGATNSQTGGLFGGATNSQTGGLFGGATNSQTGGLFGGATNSQTGGLFGGATNSQTGGLFGGATNSQTGGLFGGATNSQTGGLFGGATNSQTGGLFGGATNSQTGGLFGGATNSQTGGLFGGATNSQTGGLFGGATNSQTGGLFGGATNSQTGGLFGGATNSQTGGLFGGATNSQTGGLFGGATNSQTGGLFGGATNSQTGGLFGGATNSQTGGLFGGATNSQTGGLFGGATNSQTGGLFGGATNSQTGGLFGGATNSQTGGLFGGATNSQTGGLFGGATNSQTGGLFGGATNSQT
notes: also called thioflavin-T-positive, proline-free variant of prf.GLFG_(52 × 12)
B2: binds [2].
